Reference: patent US20060063234A1 (CRUCELL HOLLAND B V, published 2006)

Target: T1, EpCAM (epithelial cell adhesion molecule), human tumor antigen, on LS174T colon carcinoma cells (human, UniProt P16422 24-314)
T1 sequence (looked up): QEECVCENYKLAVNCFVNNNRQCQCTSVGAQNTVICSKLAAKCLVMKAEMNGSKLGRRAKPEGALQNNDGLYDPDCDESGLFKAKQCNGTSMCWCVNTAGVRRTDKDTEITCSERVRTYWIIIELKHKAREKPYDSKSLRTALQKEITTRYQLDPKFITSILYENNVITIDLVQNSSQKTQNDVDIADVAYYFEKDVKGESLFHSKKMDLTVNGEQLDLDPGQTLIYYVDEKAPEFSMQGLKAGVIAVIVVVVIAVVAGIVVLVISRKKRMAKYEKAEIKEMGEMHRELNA
Experiment: cell-based or functional assay

B1: anti-EpCAM IgM (PER.C6 produced recombinant human IgM, encoded by pEpcamIgM) (antibody)
light: QVQLVQSGAEVKKPGSSVRVSCKASGGTFSSYAISWVRQAPGQGLEWMGGIIPIFGTANYAQKFQGRVTITADESTSTAYMELSSLRSEDTAVYYCARDPFLHYWGQGTLVTVSTGSASAPTLFPLVSCENSPSDTSSVAVGCLAQDFLPDSITFSWKYKNNSDISSTRGFPSVLRGGKYAATSQVLLPSKDVMQGTDEHVVCKVQHPNGNKEKNVPLPVIAELPPKVSVFVPPRDGFFGNPRKSKLICQATGFSPRQIQVSWLREGKQVGSGVTTDQVQAEAKESGPTTYKVTSTLTIKESDWLSQSMFTCRVDHRGLTFQQNASSMCVPDQDTAIRVFAIPPSFASIFLTKSTKLTCLVTDLTTYDSVTISWTRQNGEAVKTHTNISESHPNATFSAVGEASICEDDWNSGERFTCTVTHTDLPSPLKQTISRPKGVALHRPDVYLLPPAREQLNLRESATITCLVTGFSPADVFVQWMQRGQPLSPEKYVTSAPMPEPQAPGRYFAHSILTVSEEEWNTGETYTCVVAHEALPNRVTERTVDKSTGKPTLYNVSLVMSDTAGTCY
heavy: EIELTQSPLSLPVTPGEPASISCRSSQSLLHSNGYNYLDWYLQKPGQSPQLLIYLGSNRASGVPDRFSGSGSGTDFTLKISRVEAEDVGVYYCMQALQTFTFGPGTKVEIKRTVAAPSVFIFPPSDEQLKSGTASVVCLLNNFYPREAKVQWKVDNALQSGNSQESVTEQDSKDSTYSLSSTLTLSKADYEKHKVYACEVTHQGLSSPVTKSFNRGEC
complement dependent cytotoxicity on LS174T cells: potency relative to anti-EpCAM IgG: ~10 fold
